This note sets out measurements from patent publication US20030092631A1 (Genentech, published 2003).

Assay [1] concerns the target T1, IGF-1 (human, UniProt P05019 49-118).
T1 construct: mature; also called insulin-like growth factor-1; rhIGF-1
Nature of the assay: phage ELISA, IGF-1 on plate. How it is done:
(§1) From each round, individual peptide-displaying phage were isolated and analyzed for binding to IGF-1 in a phage ELISA by capturing the peptide-phage with IGF-1 immobilized on a plate, and detecting bound phage (see below). As a control for non-specific binding, the phage were also analyzed in a phage ELISA that used plates coated with BSA. […]
(§2) MAXISORP™ immunoplates (96-well) were coated with capture target protein for 2 hours at room temperature (100 μL at 5 μg/mL in 50 mM carbonate buffer, pH 9.6). The plates were then blocked for 1 h with 0.2% BSA in phosphate-buffered saline (PBS) and washed eight times with PBS, 0.05% TWEEN®-20 detergent. Phage particles were serially diluted into BSA blocking buffer and 100 μL were transferred to coated wells. After I h, plates were washed eight times with PBS, 0.05% TWEEN®-20 detergent, incubated with 100 μL of 1:3000 horse radish peroxidase/anti-M 13 antibody conjugate in BSA blocking buffer for 30 min. and then washed eight times with PBS, 0.05% TWEEN®-20 detergent and two times with PBS. Plates were developed using a tetramethylbenzidine substrate (TMB, Kirkegaard and Perry, Gaithersburg, Md.), stopped with 1.0 M H3PO₄, and read spectrophotometrically at 450 nm.

Assay [2] addresses BSA (UniProt P02769 25-607). As to the kind of experiment: phage ELISA, BSA on plate. The protocol:
as §1, §2

Assay [3] addresses T1, IGF-1. Nature of the assay: cell-based or functional assay.

T1 sequence (P05019 49-118): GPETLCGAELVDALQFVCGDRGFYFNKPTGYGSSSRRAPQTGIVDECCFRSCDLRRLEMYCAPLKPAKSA
Chain of BSA (P02769 25-607 limits assumed): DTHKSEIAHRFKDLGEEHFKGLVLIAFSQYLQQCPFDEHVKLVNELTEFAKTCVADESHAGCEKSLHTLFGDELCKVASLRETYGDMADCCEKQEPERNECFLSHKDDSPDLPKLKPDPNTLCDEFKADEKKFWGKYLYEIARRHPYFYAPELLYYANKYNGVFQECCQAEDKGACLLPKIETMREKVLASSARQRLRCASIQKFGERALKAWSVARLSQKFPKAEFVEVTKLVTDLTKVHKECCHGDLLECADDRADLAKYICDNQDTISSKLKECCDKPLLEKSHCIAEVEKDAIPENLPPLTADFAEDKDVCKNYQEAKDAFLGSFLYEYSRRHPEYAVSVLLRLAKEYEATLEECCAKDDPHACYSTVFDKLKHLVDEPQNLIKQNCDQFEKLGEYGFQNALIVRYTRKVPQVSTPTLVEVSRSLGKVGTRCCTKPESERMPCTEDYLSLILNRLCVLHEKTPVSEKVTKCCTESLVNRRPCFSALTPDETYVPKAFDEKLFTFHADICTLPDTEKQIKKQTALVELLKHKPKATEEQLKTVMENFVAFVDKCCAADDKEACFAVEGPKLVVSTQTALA

B1: TAGIECAYDKHLDQYCWWKE (peptide)
chain: TAGIECAYDKHLDQYCWWKEGGGSGGGAEGDDPAKAAFNSLQASATEYIGYAWAMVVVIVGATIGIKLFKKFTSKAS
notes: naive clone; polyvalent P8 display on phage; STII signal left out
B1: the binding result is listed as “binds” in assay [1] and “no binding” in assay [2].

B2: HWDWTGGYWWIGREPWKEAA (peptide)
chain: HWDWTGGYWWIGREPWKEAAGGGSGGGAEGDDPAKAAFNSLQASATEYIGYAWAMVVVIVGATIGIKLFKKFTSKAS
notes: as for B1
Regarding B2, the binding result in assay [1] is recorded as “binds”; in assay [2] it was “no binding”.

B3: GAQAWLCEQREEWCGQMLGT (peptide)
chain: GAQAWLCEQREEWCGQMLGTGGGSGGGAEGDDPAKAAFNSLQASATEYIGYAWAMVVVIVGATIGIKLFKKFTSKAS
notes: as for B1
Take B3: the binding result in assay [1] is given as “binds”; in assay [2] it was “no binding”.

B4: HPDKCFADVRALQECMESVR (peptide)
chain: HPDKCFADVRALQECMESVRGGGSGGGAEGDDPAKAAFNSLQASATEYIGYAWAMVVVIVGATIGIKLFKKFTSKAS
notes: as for B1
Regarding B4, the binding result in assay [1] is “binds”; in assay [2], “no binding”.

B5: LSSEECWEALKWQGCLMSER (peptide)
chain: LSSEECWEALKWQGCLMSERGGGSGGGAEGDDPAKAAFNSLQASATEYIGYAWAMVVVIVGATIGIKLFKKFTSKAS
notes: as for B1
As for B5, the binding result in assay [1] is reported as “binds”; in assay [2] it was “no binding”.

B6: GEAAECAYDSLGMAYCYAKE (peptide)
chain: GEAAECAYDSLGMAYCYAKEGGGSGGGAEGDDPAKAAFNSLQASATEYIGYAWAMVVVIVGATIGIKLFKKFTSKAS
notes: as for B1
As to B6, the values for the binding result in assay [1] and in assay [2] were “binds” and “no binding”, respectively.

B7: EVARCVVDAGGTWYCWAEMA (peptide)
chain: EVARCVVDAGGTWYCWAEMAGGGSGGGAEGDDPAKAAFNSLQASATEYIGYAWAMVVVIVGATIGIKLFKKFTSKAS
notes: as for B1
Take B7: the binding result is listed as “binds” in assay [1] and “no binding” in assay [2].

B8: VMDQCFESYAEMRKCMLDGS (peptide)
chain: VMDQCFESYAEMRKCMLDGSGGGSGGGAEGDDPAKAAFNSLQASATEYIGYAWAMVVVIVGATIGIKLFKKFTSKAS
notes: as for B1
Take B8: the binding result in assay [1] is on record as “binds”; in assay [2], “no binding”.

B9: VESECLLSLPNLRRCMMDRL (peptide)
chain: VESECLLSLPNLRRCMMDRLGGGSGGGAEGDDPAKAAFNSLQASATEYIGYAWAMVVVIVGATIGIKLFKKFTSKAS
notes: as for B1
As for B9, the binding result is listed as “binds” in assay [1] and “no binding” in assay [2].

B10: REVKCMKDLSGHEYCWAEPR (peptide)
chain: REVKCMKDLSGHEYCWAEPRGGGSGGGAEGDDPAKAAFNSLQASATEYIGYAWAMVVVIVGATIGIKLFKKFTSKAS
notes: as for B1
With B10, the binding result was “binds” in assay [1] and “no binding” in assay [2].

B11: GEGPECDLRQWGNLCGHWET (peptide)
chain: GEGPECDLRQWGNLCGHWETGGGSGGGAEGDDPAKAAFNSLQASATEYIGYAWAMVVVIVGATIGIKLFKKFTSKAS
notes: as for B1
Take B11: the figures for the binding result in assay [1] and in assay [2] were “binds” and “no binding”, respectively.

B12: CECGKVSSRGCEKLCWLVSYM (peptide)
chain: CECGKVSSRGCEKLCWLVSYMGGGSGGGAEGDDPAKAAFNSLQASATEYIGYAWAMVVVIVGATIGIKLFKKFTSKAS
notes: as for B1
For the molecule B12, the binding result in assay [1] was “binds”; in assay [2] it was “no binding”.

B13: GVETCYSDAMNTQYCWTTEL (peptide)
chain: GVETCYSDAMNTQYCWTTELGGGSGGGAEGDDPAKAAFNSLQASATEYIGYAWAMVVVIVGATIGIKLFKKFTSKAS
notes: as for B1
On to B13, for which the binding result in assay [1] was “binds”; in assay [2] it was “no binding”.

B14: GASTTCLEKYRERQWCKELT (peptide)
chain: GASTTCLEKYRERQWCKELTGGGSGGGAEGDDPAKAAFNSLQASATEYIGYAWAMVVVIVGATIGIKLFKKFTSKAS
notes: as for B1
For the molecule B14, the binding result in assay [1] was “binds”; in assay [2], “no binding”.

B15: GESTCVTDLERVEYCWDEKS (peptide)
chain: GESTCVTDLERVEYCWDEKSGGGSGGGAEGDDPAKAAFNSLQASATEYIGYAWAMVVVIVGATIGIKLFKKFTSKAS
notes: as for B1
In the case of B15, the binding result is listed as “binds” in assay [1] and “no binding” in assay [2].

B16: VKDECLMSVEALKNCMGLVS (peptide)
chain: VKDECLMSVEALKNCMGLVSGGGSGGGAEGDDPAKAAFNSLQASATEYIGYAWAMVVVIVGATIGIKLFKKFTSKAS
notes: as for B1
Turning to B16, the binding result in assay [1] is listed as “binds”; in assay [2], “no binding”. For the molecule LGCASDLAGFWYCWAG [F2-1], the “Insulin KIRA” value in assay [3] is 40.4 µM.

B17: EAGAESRGWLQARCGELLGV (peptide)
chain: EAGAESRGWLQARCGELLGVGGGSGGGAEGDDPAKAAFNSLQASATEYIGYAWAMVVVIVGATIGIKLFKKFTSKAS
notes: as for B1
In the case of B17, the binding result in assay [1] is recorded as “binds”; in assay [2] it was “no binding”.

B18: YDWVEACQKWPVLCMDSTMY (peptide)
chain: YDWVEACQKWPVLCMDSTMYGGGSGGGAEGDDPAKAAFNSLQASATEYIGYAWAMVVVIVGATIGIKLFKKFTSKAS
notes: as for B1
As for B18, the binding result in assay [1] is on record as “binds”; in assay [2] it was “no binding”.

B19: DAMDCVVGPEWRKCFLEG (peptide)
chain: DAMDCVVGPEWRKCFLEGGGGSGGGAEGDDPAKAAFNSLQASATEYIGYAWAMVVVIVGATIGIKLFKKFTSKAS
notes: as for B1
As for B19, the values for the binding result in assay [1] and in assay [2] were “binds” and “no binding”, respectively.

B20: SFCEFNDWWPTCLV (peptide)
chain: SFCEFNDWWPTCLVGGGSGGGAEGDDPAKAAFNSLQASATEYIGYAWAMVVVIVGATIGIKLFKKFTSKAS
notes: as for B1
In the case of B20, the binding result in assay [1] is recorded as “binds”; in assay [2], “no binding”.

B21: SGTACRWGPSWLLCSLAGSP (peptide)
chain: SGTACRWGPSWLLCSLAGSPGGGSGGGAEGDDPAKAAFNSLQASATEYIGYAWAMVVVIVGATIGIKLFKKFTSKAS
notes: as for B1
In the case of B21, the figures for the binding result in assay [1] and in assay [2] were “binds” and “no binding”, respectively.

B22: VEEKCYESITALRHCMQAMQ (peptide)
chain: VEEKCYESITALRHCMQAMQGGGSGGGAEGDDPAKAAFNSLQASATEYIGYAWAMVVVIVGATIGIKLFKKFTSKAS
notes: as for B1
Take B22: the binding result in assay [1] was “binds”; in assay [2], “no binding”.

B23: GIREELCDKGLHKMCFREVR (peptide)
chain: GIREELCDKGLHKMCFREVRGGGSGGGAEGDDPAKAAFNSLQASATEYIGYAWAMVVVIVGATIGIKLFKKFTSKAS
notes: as for B1
B23: the binding result is “binds” in assay [1] and “no binding” in assay [2].

B24: QIPAGCYESVQSLLECVQSA (peptide)
chain: QIPAGCYESVQSLLECVQSAGGGSGGGAEGDDPAKAAFNSLQASATEYIGYAWAMVVVIVGATIGIKLFKKFTSKAS
notes: as for B1
Turning to B24, the binding result in assay [1] is “binds”; in assay [2], “no binding”. With WRCVDDLGGFQYCWAG [F2-2], in assay [3], the “IGF-1 KIRA” value is 130 µM and the “Insulin KIRA” value came out at 93.6 µM.

As to ARCVVDAGGTWYCWAG [F2-P], in assay [3], the “Insulin KIRA” value was 300 µM. DECLMSVEALKNCMGG [F1-P]: in assay [3], the “IGF-1 KIRA” value was 400 µM and the “Insulin KIRA” value stood at 183 µM.

B25: IECWQDLQGTRLCWE (peptide)
chain: IECWQDLQGTRLCWEGGGSGGGAEGDDPAKAAFNSLQASATEYIGYAWAMVVVIVGATIGIKLFKKFTSKAS
notes: as for B1
With B25, the binding result in assay [1] is listed as “binds”; in assay [2] it was “no binding”.

B26: STYSCIRDMGWAVYCWETTL (peptide)
chain: STYSCIRDMGWAVYCWETTLGGGSGGGAEGDDPAKAAFNSLQASATEYIGYAWAMVVVIVGATIGIKLFKKFTSKAS
notes: as for B1
As to B26, the binding result in assay [1] is on record as “binds”; in assay [2], “no binding”.
